Measurements taken from US20120076815A1.

Biological target: recombinant TcPRACA proline racemase of Trypanosoma cruzi (subunit) (Trypanosoma cruzi) (UniProt Q4DA80)
Experiment: cell-based or functional assay

## recombinant TcPRACA proline racemase of Trypanosoma cruzi (subunit) (from UniProt Q4DA80 30-423) (enzyme)
  % racemization (fraction B1, start of the dimer peak): 35.5%
  % racemization (fraction B2, dimer peak, about 80 kDa): 62.9%
  % racemization (fraction B4, monomer peak, about 43 kDa): 0.7%
  % racemization (fraction B5, end of the monomer peak): 0%
